The source of these data is article PMC6757138, “Biochemical and biophysical characterization of purified native CD20 alone and in complex with rituximab and obinutuzumab” (Scientific Reports, 2019).

This data set concerns the molecule itself. Put plainly: AUC; sedimentation velocity, 60,000 rpm, 20 °C; CD20 at 0.5 mg/ml in 20 mM Tris pH 8.0, 150 mM NaCl, CALX-173-GK; also at 0.044 mg/ml after dilution with CALX-173-GK or DDM (0.05%) buffer, where the distribution shifts in favour of the monomer.

B1: CD20 (full length, wild type, C-terminal His6 tag) (natural protein, human, UniProt P11836 1-297, looked up)
chain: MTTPRNSVNGTFPAEPMKGPIAMQSGPKPLFRRMSSLVGPTQSFFMRESKTLGAVQIMNGLFHIALGGLLMIPAGIYAPICVTVWYPLWGGIMYIISGSLLAATEKNSRKCLVKGKMIMNSLSLFAAISGMILSIMDILNIKISHFLKMESLNFIRAHTPYINIYNCEPANPSEKNSPSTQYCYSIQSLFLGILSVMLIFAFFQELVIAGIVENEWKRTCSRPKSNIVLLSAEEKKEQTIEIKEEVVGLTETSSQPKNEEDIEIIPIQEEEEEETETNFPEPPQDQESSPIENDSSP
notes: CD20, human, UniProt P11836, full length and wild type, from plasmid pETR17026; Integral membrane protein held in calixarene detergent micelles (CALX-173-GK, or DDM after dilution); also called purified native CD20; recombinant native CD20; source: gel filtration in CALX-173-GK; not shown: His6, C-terminal, kept
For B1, the binding result is on record as “binds”.
